Changes are numbered by the printed parent chain.
T1: human PD-L2 on CHO-K1 cells of the Promega PD-1/PD-L2 blockade bioassay (human, UniProt Q9BQ51 20-273)
T1 sequence (looked up): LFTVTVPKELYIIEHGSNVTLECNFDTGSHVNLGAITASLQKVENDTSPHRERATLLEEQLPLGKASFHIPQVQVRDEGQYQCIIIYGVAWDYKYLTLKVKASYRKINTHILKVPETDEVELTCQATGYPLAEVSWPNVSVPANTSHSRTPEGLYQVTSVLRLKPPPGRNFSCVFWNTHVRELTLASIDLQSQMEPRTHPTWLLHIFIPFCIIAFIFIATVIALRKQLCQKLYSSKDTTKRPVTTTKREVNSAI

T2: recombinant human PD-L2 (human PD-L2 antigen) (human, UniProt Q9BQ51 20-219, limits assumed)
T2 construct: The Biacore analyte and the ELISA antigen are only called human PD-L2 antigen / recombinant hPD-L2; Whole entry named; also called hPD-L2; recombinant hPD-L2
T2 sequence (looked up): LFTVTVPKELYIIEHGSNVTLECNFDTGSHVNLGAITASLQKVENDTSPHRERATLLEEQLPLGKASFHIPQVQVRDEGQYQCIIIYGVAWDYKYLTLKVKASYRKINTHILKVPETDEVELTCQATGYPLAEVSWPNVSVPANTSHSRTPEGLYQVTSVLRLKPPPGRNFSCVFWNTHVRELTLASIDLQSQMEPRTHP

T3: mouse PD-L2 on CHO-K1 cells over-expressing mPD-L2 GFP (mouse, UniProt Q9WUL5 20-247)
T3 construct: whole, on cells; also called cellular mPD-L2; not shown: GFP of the mPD-L2 GFP construct
T3 sequence (looked up): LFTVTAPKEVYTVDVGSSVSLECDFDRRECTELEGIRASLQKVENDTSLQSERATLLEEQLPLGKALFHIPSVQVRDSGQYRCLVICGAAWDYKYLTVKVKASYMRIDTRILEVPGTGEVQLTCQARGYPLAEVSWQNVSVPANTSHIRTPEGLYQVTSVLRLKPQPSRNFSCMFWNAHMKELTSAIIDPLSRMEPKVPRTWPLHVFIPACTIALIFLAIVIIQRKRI

B1: VH0/VK0 chimeric antibody (hIgG1 backbone) (antibody, V domains shown)
VH: QVQLQQSGAELVRPGTSVKVSCKASGYAFSNYFIEWVKQRPGQGLEWIGLNIPGSGGSNYAEKFKGKATLTADKSSSTAYMQLSSLTSEDSAVYFCARRRLPPDWYFDVWGTGTTVTVSS
VL: DVVMTQTPLSLPVSLGDQASISCRSSQSLVHSDGNTYLHWYLQKPGQSPKLLIYKVSNRFSGVPDRFSGSGSGTDFTLKISRVEAEDLGVYFCSQSTHVPWTFGGGTKLEIK
notes: Mouse variable regions on human IgG1 backbone, expressed in CHO cells; also called chimeric anti-PDL2 lead mAb VH0/VK0
B2: VH7/VK2 (antibody, V domains shown)
VH: QVQLVQSGAELKKPGSSVKVSCKASGYAFSNYFIEWVKQPPGKGLEWIGLNIPGSGGSNYAEKFKGRATITADKSTSTAYMELSSLRSEDTAVYYCARRRLPPDWYFDVWGQGTTVTVSS
VL: B1 VL with T7S, S14T, D17Q, Q18P, L42Q, S48P, L88V, F92Y, L109V
notes: hIgG1 backbone, CHO expressed
B3: VH6/VK3 (antibody, V domains shown)
VH: B2 VH with L11V, A28S, A68V
VL: B1 VL with T7S, S14T, D17Q, Q18P, D33G, L42Q, S48P, L88V, L109V
notes: hIgG1 backbone, CHO expressed
B4: VH6/VK2 (antibody, V domains shown)
VH: B2 VH with L11V, A28S, A68V
VL: B1 VL with T7S, S14T, D17Q, Q18P, L42Q, S48P, L88V, F92Y, L109V
notes: hIgG1 backbone, CHO expressed
B5: VH6/VK1 (antibody, V domains shown)
VH: B2 VH with L11V, A28S, A68V
VL: B1 VL with T7S, S14T, D17Q, Q18P, L42Q, S48P, L88V, L109V
notes: hIgG1 backbone, CHO expressed
B6: VH8/VK3 (antibody, V domains shown)
VH: B2 VH with L11V
VL: B1 VL with T7S, S14T, D17Q, Q18P, D33G, L42Q, S48P, L88V, L109V
notes: hIgG1 backbone, CHO expressed
B7: VH3/VK1 (antibody, V domains shown)
VH: B2 VH with L11V, A68V, T91S, Y95F
VL: B1 VL with T7S, S14T, D17Q, Q18P, L42Q, S48P, L88V, L109V
notes: hIgG1 backbone, CHO expressed
B8: VH8/VK1 (antibody, V domains shown)
VH: B2 VH with L11V
VL: B1 VL with T7S, S14T, D17Q, Q18P, L42Q, S48P, L88V, L109V
notes: hIgG1 backbone, CHO expressed
B9: VH3/VK3 (antibody, V domains shown)
VH: B2 VH with L11V, A68V, T91S, Y95F
VL: B1 VL with T7S, S14T, D17Q, Q18P, D33G, L42Q, S48P, L88V, L109V
notes: hIgG1 backbone, CHO expressed
B10: VH7/VK1 (antibody, V domains shown)
VH: B2 VH
VL: B1 VL with T7S, S14T, D17Q, Q18P, L42Q, S48P, L88V, L109V
notes: hIgG1 backbone, CHO expressed
B11: VH1/VK2 (antibody, V domains shown)
VH: B2 VH with R87T, T91S, Y95F
VL: B1 VL with T7S, S14T, D17Q, Q18P, L42Q, S48P, L88V, F92Y, L109V
notes: hIgG1 backbone, CHO expressed
B12: VH1/VK3 (antibody, V domains shown)
VH: B2 VH with R87T, T91S, Y95F
VL: B1 VL with T7S, S14T, D17Q, Q18P, D33G, L42Q, S48P, L88V, L109V
notes: hIgG1 backbone, CHO expressed
B13: VH7/VK3 (antibody, V domains shown)
VH: B2 VH
VL: B1 VL with T7S, S14T, D17Q, Q18P, D33G, L42Q, S48P, L88V, L109V
notes: hIgG1 backbone, CHO expressed
B14: VH1/VK1 (antibody, V domains shown)
VH: B2 VH with R87T, T91S, Y95F
VL: B1 VL with T7S, S14T, D17Q, Q18P, L42Q, S48P, L88V, L109V
notes: hIgG1 backbone, CHO expressed
B15: VH4/VK1 (antibody, V domains shown)
VH: B2 VH with L11V, A68V
VL: B1 VL with T7S, S14T, D17Q, Q18P, L42Q, S48P, L88V, L109V
notes: hIgG1 backbone, CHO expressed
B16: VH2/VK2 (antibody, V domains shown)
VH: B2 VH with L11V, T91S, Y95F
VL: B1 VL with T7S, S14T, D17Q, Q18P, L42Q, S48P, L88V, F92Y, L109V
notes: hIgG1 backbone, CHO expressed
B17: VH4/VK2 (antibody, V domains shown)
VH: B2 VH with L11V, A68V
VL: B1 VL with T7S, S14T, D17Q, Q18P, L42Q, S48P, L88V, F92Y, L109V
notes: hIgG1 backbone, CHO expressed
B18: VH2/VK3 (antibody, V domains shown)
VH: B2 VH with L11V, T91S, Y95F
VL: B1 VL with T7S, S14T, D17Q, Q18P, D33G, L42Q, S48P, L88V, L109V
notes: hIgG1 backbone, CHO expressed
B19: VH2/VK1 (antibody, V domains shown)
VH: B2 VH with L11V, T91S, Y95F
VL: B1 VL with T7S, S14T, D17Q, Q18P, L42Q, S48P, L88V, L109V
notes: hIgG1 backbone, CHO expressed
B20: VH4/VK3 (antibody, V domains shown)
VH: B2 VH with L11V, A68V
VL: B1 VL with T7S, S14T, D17Q, Q18P, D33G, L42Q, S48P, L88V, L109V
notes: hIgG1 backbone, CHO expressed
B21: VH3/VK2 (antibody, V domains shown)
VH: B2 VH with L11V, A68V, T91S, Y95F
VL: B1 VL with T7S, S14T, D17Q, Q18P, L42Q, S48P, L88V, F92Y, L109V
notes: hIgG1 backbone, CHO expressed
B22: VH0/VK1 (antibody, V domains shown)
VH: B1 VH
VL: B1 VL with T7S, S14T, D17Q, Q18P, L42Q, S48P, L88V, L109V
notes: hIgG1 backbone, CHO expressed
B23: VH1/VK0 (antibody, V domains shown)
VH: B2 VH with R87T, T91S, Y95F
VL: B1 VL
notes: hIgG1 backbone, CHO expressed

molecular target: T1, human PD-L2 on CHO-K1 cells of the …; experiment: cell-based or functional assay

Row | EC50 (PD-1/PD-L2 blockade reporter assay, luminescence) [nM] | Binder
1 | 0.64 | B1
2 | 0.6 | B2
3 | 0.62 | B3
4 | 0.64 | B4
5 | 0.82 | B5

molecular target: T2, recombinant human PD-L2 (human PD-L2 …); experiment: SPR (Biacore 8K), single cycle kinetics, antibody in culture supernatant, human PD-L2 antigen
Excerpt: Table 2: Single cycle kinetic parameters of chimeric (VH0/VK0) and humanized variants (tested as cell culture supernatants) binding to human PD-L2 antigen as determined using the Biacore 8K. As used herein, the term “KD” is intended to refer to the dissociation equilibrium constant of a particular antibody-antigen interaction, ka is the binding rate constant and kd is the dissociation rate constant. The binding affinity of antibodies of the disclosed invention may be measured or determined by standard antibody-antigen assays. The relative KD was calculated by dividing the KD of the humanized variant by that of the VH0/VK0 assayed in the same experiment.

Row | Kd [nM] | Relative KD (KD of variant / KD of VH0/VK0) | koff [s⁻¹] | kon [M⁻¹ s⁻¹] | Binder
6 | 0.0358 | 1 | 9.72e-05 | 2.72e+06 | B1
7 | 0.244 | 6.82 | 0.000388 |  | B6
8 | 0.0606 | 1.69 | 0.000128 |  | B7
9 | 0.053 | 1.48 | 0.00012 |  | B8
10 | 0.314 | 8.77 | 0.000497 |  | B9
11 | 0.0499 | 1.39 | 0.000113 |  | B10
12 | 0.0523 | 1.46 | 0.000118 |  | B2
13 | 0.0487 | 1.36 | 0.000116 |  | B11
14 | 0.223 | 6.23 | 0.000365 |  | B12
15 | 0.262 | 7.32 | 0.000444 |  | B3
16 | 0.222 | 6.2 | 0.000344 |  | B13
17 | 0.0475 | 1.33 | 0.00011 |  | B14
18 | 0.0588 | 1.64 | 0.000128 |  | B4
19 | 0.0586 | 1.64 | 0.000125 |  | B15
20 | 0.0555 | 1.55 | 0.000122 |  | B16
21 | 0.0529 | 1.48 | 0.000121 |  | B5
22 | 0.0596 | 1.66 | 0.000129 |  | B17
23 | 0.267 | 7.46 | 0.000414 |  | B18
24 | 0.0551 | 1.54 | 0.000119 |  | B19
25 | 0.287 | 8.02 | 0.000466 |  | B20
26 | 0.0604 | 1.69 | 0.000132 |  | B21
27 | 0.0379 | 1.06 | 9.88e-05 |  | B22
28 | 0.0427 | 1.19 | 0.000109 |  | B23

molecular target: T3, mouse PD-L2 on CHO-K1 cells …; experiment: flow cytometry on CHO-K1 cells overexpressing mPD-L2, mean fluorescence
Procedure: CHO-K1 cells over-expressing either hPDL2-GFP or mPD-L2 GFP were detached, washed in phosphate buffered saline (PBS) and adjusted to a cell concentration of around 1 million cells in cytometry buffer (CB, PBS containing 1% […]). Around 80,000 cells were then distributed into a round-bottom 96 well plate and the plate was centrifuged for 3 minutes at 400 g at 4° C. and supernatant discarded. Appropriate antibody concentrations in 50 microliter volumes were added to the wells and incubated for 30 minutes at 6-8° C. The plate was washed 3 times with PBS and relevant secondary antibodies (either AlexaFluor 647 Goat anti-Mouse IgG (H+L) (Invitrogen A21235/lot 1915807) or AlexaFluor 647 Goat anti-Rat IgG (H+L) (Invitrogen A21247/lot 1921562) were added for 30 minutes at 4° C. Cells were again washed with PBS two times, resuspended in CB and analyzed in either the Sony ID7000 Spectral Cell analyzer (Sony) or the GALLIOS Flow Cytometer (Beckman-Coulter) was used. EC₅₀ was calculated using the Sigmoidal 4PL equation of the GraphPad Prism-9 software.

Row | EC50 [nM] | Binder
29 | 0.16 | B1

molecular target: T1, human PD-L2 on CHO-K1 cells of the …; experiment: cell-based or functional assay; remark: another data set of the same source

Row | EC50 (PD-1/PD-L2 blockade reporter assay, luminescence) [nM] | Binder
30 | 1.11 | B3
